The values below come from article PMC7020754.

B1: M0 (dsDNA)
DNA 1: AGAGCCCGCCACAGACATATACGCTTTTGCCTATGTTTC
DNA 2: GAAACATAGGCAAAAGCGTATATGTCTGTGGCGGGCTCT
B2: M9 (dsDNA)
DNA 1: AGAGCCCGCCACAGACATATACTCTTTTGCCTATGTTTC
DNA 2: GAAACATAGGCAAAAGAGTATATGTCTGTGGCGGGCTCT
B3: M4 (dsDNA)
DNA 1: AGAGCCCGCCACAGACATATGCGCTTTTGCCTATGTTTC
DNA 2: GAAACATAGGCAAAAGCGCATATGTCTGTGGCGGGCTCT
B4: M1 (dsDNA)
DNA 1: AGAGCCCGCCACAGACAGATACGCTTTTGCCTATGTTTC
DNA 2: GAAACATAGGCAAAAGCGTATCTGTCTGTGGCGGGCTCT
B5: M5 (dsDNA)
DNA 1: AGAGCCCGCCACAGACATATACGCGTTTGCCTATGTTTC
DNA 2: GAAACATAGGCAAACGCGTATATGTCTGTGGCGGGCTCT
B6: M10 (dsDNA)
DNA 1: AGAGCCCGCCACAGACATATATGCTTTTGCCTATGTTTC
DNA 2: GAAACATAGGCAAAAGCATATATGTCTGTGGCGGGCTCT
B7: OL1 (dsDNA)
DNA 1: CACCCCTTATGTATATACGTTTTTATCGCGATTCTCTTGC
DNA 2: GCAAGAGAATCGCGATAAAAACGTATATACATAAGGGGTG
B8: OL2 (dsDNA)
DNA 1: TTTTATCGCGATTCTCTTGCAGAGCCCGCCACAGACATAT
DNA 2: ATATGTCTGTGGCGGGCTCTGCAAGAGAATCGCGATAAAA
B9: F4 (dsDNA)
DNA 1: TGGCCGCGCCGGCCGACTCACGGCTCACCGCACGCTCCGGCCATAAGCCGGATACTACCC
DNA 2: GGGTAGTATCCGGCTTATGGCCGGAGCGTGCGGTGAGCCGTGAGTCGGCCGGCGCGGCCA
B10: F5 (dsDNA)
DNA 1: TCCGCGAGGGACCAGTCACGCGACTCGCGAAGTGCGCGAATGGCCGCGCCGGCCGACTCA
DNA 2: TGAGTCGGCCGGCGCGGCCATTCGCGCACTTCGCGAGTCGCGTGACTGGTCCCTCGCGGA
B11: OL3 (dsDNA)
DNA 1: AGAGCCCGCCACAGACATATACGCTTTTGCCTATGTTTCG
DNA 2: CGAAACATAGGCAAAAGCGTATATGTCTGTGGCGGGCTCT
B12: F2 (dsDNA)
DNA 1: CACCCCTTATGTATATACGTTTTTATCGCGATTCTCTTGCAGAGCCCGCCACAGACATAT
DNA 2: ATATGTCTGTGGCGGGCTCTGCAAGAGAATCGCGATAAAAACGTATATACATAAGGGGTG
B13: F1 (dsDNA)
DNA 1: AGAGCCCGCCACAGACATATACGCTTTTGCCTATGTTTCGTTCAACAAGGAGGCCGGCAC
DNA 2: GTGCCGGCCTCCTTGTTGAACGAAACATAGGCAAAAGCGTATATGTCTGTGGCGGGCTCT
B14: F3 (dsDNA)
DNA 1: CCATAAGCCGGATACTACCCGGATACGACTCGGCCGCGGCCACCCCTTATGTATATACGT
DNA 2: ACGTATATACATAAGGGGTGGCCGCGGCCGAGTCGTATCCGGGTAGTATCCGGCTTATGG
B15: OL5 (dsDNA)
DNA 1: ATTCTCTTGCAGAGCCCGCCACAGACATATACGCTTTTGC
DNA 2: GCAAAAGCGTATATGTCTGTGGCGGGCTCTGCAAGAGAAT
B16: OL4 (dsDNA)
DNA 1: ACGCTTTTGCCTATGTTTCGTTCAACAAGGAGGCCGGCAC
DNA 2: GTGCCGGCCTCCTTGTTGAACGAAACATAGGCAAAAGCGT
B17: F6 (dsDNA)
DNA 1: GCTCAGGCCCATGGTGCTTACGCCAGTGGCGGCCGCCAGGTCCGCGAGGGACCAGTCACG
DNA 2: CGTGACTGGTCCCTCGCGGACCTGGCGGCCGCCACTGGCGTAAGCACCATGGGCCTGAGC

The target in the first series is T1, Rv0023 (XRE family transcription regulator) (Mycobacterium tuberculosis, UniProt P9WMI3 1-256).
T1 sequence: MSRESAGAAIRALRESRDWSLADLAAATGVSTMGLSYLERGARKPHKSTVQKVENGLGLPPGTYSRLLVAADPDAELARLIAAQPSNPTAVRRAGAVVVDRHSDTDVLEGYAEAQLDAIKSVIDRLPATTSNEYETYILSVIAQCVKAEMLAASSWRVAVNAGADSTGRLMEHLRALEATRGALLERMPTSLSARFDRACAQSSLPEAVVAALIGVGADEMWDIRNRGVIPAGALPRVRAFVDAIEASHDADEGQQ
Nature of the series: EMSA; 8 pmol protein. The conditions noted are these: protein: recombinant; tags: His (implied by Ni-NTA purification; pET23a, also printed pET21b); chain copies: 2; label: 32P. A general note: Mobility shift assays separate free from complexed probe on a gel.
Regarding B1, the binding result is “binds”.
As for B2, the binding result is reported as “binds”.
Consider B3, for which the binding result is “binds”.
Still for that read-out and setting: under B4 stands “binds”; under B5, “binds”.
On the same count and under the same terms, under B6 stands “binds”.

The series is the same for the next values; noted with them: protein: recombinant; tags: His (implied by Ni-NTA purification; pET23a, also printed pET21b); chain copies: 2; label: 32P; blunt.
On to B7, for which the binding result is “binds”.
For the molecule B8, the binding result is recorded as “no binding”.
For B9, the binding result was “no binding”.
With B10, the binding result is “no binding”.
Take B11: the binding result is “binds”.
Consider B12, for which the binding result was “binds”.
Take B13: the binding result is recorded as “binds”.
As to B14, the binding result is on record as “no binding”.
Regarding B15, the binding result is “no binding”.
On to B16, for which the binding result is “no binding”.
As to B17, the binding result is on record as “no binding”.
